Measurements published in article doi:10.1101/2021.07.03.450947, “The pore conformation of lymphocyte perforin” (bioRxiv, 2021).

Target: the molecule itself
Experiment: cryo-electron tomography; prepores on liposomes (PC, cholesterol, biotinyl PE 6:3:1) held on streptavidin grids; 20 mM HEPES pH 7.5, 150 mM NaCl, 5 mM CaCl2; 5-10 min at 37°C; protein to lipid about 1:10,000

B1: TMH1-lock mutant of perforin (A144C-W373C) (natural protein, mouse, UniProt P10820 21-554, looked up)
chain: PCYTATRSECKQKHKFVPGVWMAGEGMDVTTLRRSGSFPVNTQRFLRPDRTCTLCKNSLMRDATQRLPVAITHWRPHSSHCQRNVAAAKVHSTEGVAREAAANINNDWRVGLDVNPRPEANMRCSVAGSHSKVANFAAEKTYQDQYNFNSDTVECRMYSFRLVQKPPLHLDFKKALRALPRNFNSSTEHAYHRLISSYGTHFITAVDLGGRISVLTALRTCQLTLNGLTADEVGDCLNVEAQVSIGAQASVSSEYKACEEKKKQHKMATSFHQTYRERHVEVLGGPLDSTHDLLFGNQATPEQFSTWTASLPSNPGLVDYSLEPLHTLLEEQNPKREALRQAISHYIMSRARCQNCSRPCRSGQHKSSHDSCQCECQDSKVTNQDCCPRQRGLAHLVVSNFRAEHLWGDYTTATDAYLKVFFGGQEFRTGVVWNNNNPRWTDKMDFENVLLSTGGPLRVQVWDADYGWDDDLLGSCDRSPHSGFHEVTCELNHGRVKFSYHAKCLPHLTGGTCLEYAPQGLLGDPPGNRSGAVW
modifications: engineered disulphide bond between A144C and W373C
notes: perforin, mouse, with the engineered disulphide A144C-W373C that tethers TMH1 to the core of the MACPF domain; also called A144C-W373C perforin; source: baculovirus/insect cell system, purified from the supernatant
binding result: binds
